Biological target: T1, FcγRIIIa extracellular domain with C-terminal His tag (human, UniProt P08637 17-208)
T1 construct: extracellular domain; also called FcgRIIIa; 3a; not shown: His tag at the C terminus
Assay: SPR relative binding; GpH7-A5/GpH7-B3/GpL16-k0 = 100
Description: First, variants of interest were expressed and prepared according to the method described in Reference Example 1, using GpH7-A5 as an H chain; and GpL16-k0 as the L chain; and as the other H chain, GpH7-HA5 (SEQ ID NO: 19), GpH7-HA6 (SEQ ID NO: 20), and GpH7-HA11 (SEQ ID NO: 21) resulting from the introduction of L234Y, G236W, and S298A, respectively, into GpH7-B12 introduced with the alteration P329R. Furthermore, antibodies of interest were expressed and prepared according to the method described in Reference Example 1, using as an H chain, GpH7-A48 (SEQ ID NO: 16) resulting from the introduction of P329R into GpH7-A5; and GpL16-k0 as the L chain; and as the other H chain, GpH7-B3-01-15Y (SEQ ID NO: 22), GpH7-B3-03-20W (SEQ ID NO: 23), and GpH7-B3-15-02A (SEQ ID NO: 24) resulting from the introduction of L234Y, G236W, and S298A, respectively, into GpH7-B3. The antibodies thus obtained were named GpH7-A5/GpH7-HA5/GpL16-k0 (SEQ ID NOs: 3, 19, and 5, respectively), GpH7-A5/GpH7-HA6/GpL16-k0 (SEQ ID NOs: 3, 20, and 5, respectively), GpH7-A5/GpH7-HA11/GpL16-k0 (SEQ ID NOs: 3, 21, and 5, respectively), GpH7-A48/GpH7-B3-01-15Y/GpL16-k0 (SEQ ID NOs: 16, 22, and 5, respectively), GpH7-A48/GpH7-B3-03-20W/GpL16-k0 (SEQ ID NOs: 16, 23, and 5, respectively), and GpH7-A48/GpH7-B3-15-02A/GpL16-k0 (SEQ ID NO: 16, 24, and 5, respectively). The variants were compared to each other for the FcγRIIIa-binding activity according to the method described in Reference Example 2.
Analysis of interaction between objective antibody and the FcγR was carried out using Biacore T100 (GE Healthcare). HBS-EP+ (GE Healthcare) was used as the running buffer, and the measurement temperature was set to 25° C. Chips produced by immobilizing the antigen peptide by the amine coupling method to a Series S Sencor Chip CM5 (GE Healthcare), or alternatively, chips produced by allowing preliminarily biotinylated antigen peptides to interact with and immobilize onto a Series S Sensor Chip SA (certified) (GE Healthcare) were used. Antibodies of interest were captured onto an antigen peptide-immobilized chip, and allowed to interact to each FcγR diluted with running buffer. To regenerate and repeatedly use the chip, the antibodies captured on the chip were washed off by reacting 10 mM glycine-HCl, pH 1.5.

T1 sequence (P08637 17-208): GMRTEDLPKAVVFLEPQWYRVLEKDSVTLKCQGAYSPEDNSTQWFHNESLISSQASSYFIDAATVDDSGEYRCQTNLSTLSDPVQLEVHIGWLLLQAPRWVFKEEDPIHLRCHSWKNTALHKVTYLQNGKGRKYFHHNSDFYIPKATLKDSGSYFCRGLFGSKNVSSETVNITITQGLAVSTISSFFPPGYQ

B1: GpH7-A5/GpH7-HA5/GpL16-k0 (antibody, human IgG1, kappa)
heavy 1: not shown
heavy 2: QVQLVQSGAEVKKPGASVTVSCKASGYTFTDYEMHWIRQPPGEGLEWIGAIDPKTGDTAYSESFQDRVTLTADKSTSTAYMELSSLTSEDTAVYYCTRFYSYTYWGQGTLVTVSSASTKGPSVFPLAPSSKSTSGGTAALGCLVKDYFPEPVTVSWNSGALTSGVHTFPAVLQSSGLYSLSSVVTVPSSSLGTQTYICNVNHKPSNTKVDKKVEPKSCDKTHTCPPCPAPEYLGGPSVFLFPPKPKDTLMISRTPEVTCVVVDVSHEDPEVKFNWYVDGVEVHNAKTKPREEQYNSTYRVVSVLTVLHQDWLNGKEYKCKVSNKALRAPIEKTISKAKGQPREPQVYTLPPSRDELTKNQVSLTCLVKGFYPSDIAVEWESNGQPENNYKTTPPVLDSDGSFFLYSKLTVDKSRWQQGNVFSCSVMHEALHNHYTQESLSLSP
light: DIVMTQSPLSLPVTPGEPASISCQASESLVHSNRNTYLHWYLQKPGQSPQLLIYKVSNRFSGVPDRFSGSGSGTDFTLKISRVEAEDVGVYYCSQNTHVPPTFGQGTKVEIERTVAAPSVFIFPPSDEQLKSGTASVVCLLNNFYPREAKVQWKVDNALQSGNSQESVTEQDSKDSTYSLSSTLTLSKADYEKHKVYACEVTHQGLSSPVTKSFNRGEC
notes: H2 L234Y and P329R
- FcγRIIIa BINDING ACTIVITY: 60 % of control

B2: GpH7-A5/GpH7-HA6/GpL16-k0 (antibody, human IgG1, kappa)
heavy 1: not shown
heavy 2: QVQLVQSGAEVKKPGASVTVSCKASGYTFTDYEMHWIRQPPGEGLEWIGAIDPKTGDTAYSESFQDRVTLTADKSTSTAYMELSSLTSEDTAVYYCTRFYSYTYWGQGTLVTVSSASTKGPSVFPLAPSSKSTSGGTAALGCLVKDYFPEPVTVSWNSGALTSGVHTFPAVLQSSGLYSLSSVVTVPSSSLGTQTYICNVNHKPSNTKVDKKVEPKSCDKTHTCPPCPAPELLWGPSVFLFPPKPKDTLMISRTPEVTCVVVDVSHEDPEVKFNWYVDGVEVHNAKTKPREEQYNSTYRVVSVLTVLHQDWLNGKEYKCKVSNKALRAPIEKTISKAKGQPREPQVYTLPPSRDELTKNQVSLTCLVKGFYPSDIAVEWESNGQPENNYKTTPPVLDSDGSFFLYSKLTVDKSRWQQGNVFSCSVMHEALHNHYTQESLSLSP
light: DIVMTQSPLSLPVTPGEPASISCQASESLVHSNRNTYLHWYLQKPGQSPQLLIYKVSNRFSGVPDRFSGSGSGTDFTLKISRVEAEDVGVYYCSQNTHVPPTFGQGTKVEIERTVAAPSVFIFPPSDEQLKSGTASVVCLLNNFYPREAKVQWKVDNALQSGNSQESVTEQDSKDSTYSLSSTLTLSKADYEKHKVYACEVTHQGLSSPVTKSFNRGEC
notes: H2 G236W and P329R
- FcγRIIIa BINDING ACTIVITY: 56 % of control

B3: GpH7-A5/GpH7-HA11/GpL16-k0 (antibody, human IgG1, kappa)
heavy 1: not shown
heavy 2: QVQLVQSGAEVKKPGASVTVSCKASGYTFTDYEMHWIRQPPGEGLEWIGAIDPKTGDTAYSESFQDRVTLTADKSTSTAYMELSSLTSEDTAVYYCTRFYSYTYWGQGTLVTVSSASTKGPSVFPLAPSSKSTSGGTAALGCLVKDYFPEPVTVSWNSGALTSGVHTFPAVLQSSGLYSLSSVVTVPSSSLGTQTYICNVNHKPSNTKVDKKVEPKSCDKTHTCPPCPAPELLGGPSVFLFPPKPKDTLMISRTPEVTCVVVDVSHEDPEVKFNWYVDGVEVHNAKTKPREEQYNATYRVVSVLTVLHQDWLNGKEYKCKVSNKALRAPIEKTISKAKGQPREPQVYTLPPSRDELTKNQVSLTCLVKGFYPSDIAVEWESNGQPENNYKTTPPVLDSDGSFFLYSKLTVDKSRWQQGNVFSCSVMHEALHNHYTQESLSLSP
light: DIVMTQSPLSLPVTPGEPASISCQASESLVHSNRNTYLHWYLQKPGQSPQLLIYKVSNRFSGVPDRFSGSGSGTDFTLKISRVEAEDVGVYYCSQNTHVPPTFGQGTKVEIERTVAAPSVFIFPPSDEQLKSGTASVVCLLNNFYPREAKVQWKVDNALQSGNSQESVTEQDSKDSTYSLSSTLTLSKADYEKHKVYACEVTHQGLSSPVTKSFNRGEC
notes: H2 S298A and P329R
- FcγRIIIa BINDING ACTIVITY: 84 % of control

— US20180155451A1 (published 2018)
